Reference: US20230002480A1

Experiments:
Experiment in all cases: cell-based or functional assay
[1] = target: HIV-1 Env of pseudovirus CNE19 (HIV-1)
[2] = target: HIV-1 Env of pseudovirus CNE53 (HIV-1)
[3] = target: HIV-1 Env of pseudovirus ZM53M.PB12 (HIV-1)
[4] = target: HIV-1 Env of pseudovirus QH0692.42 (HIV-1)
[5] = target: HIV-1 Env of pseudovirus ZM135M.PL10a (HIV-1)
[6] = target: HIV-1 Env of pseudovirus Ce1086_B2 (HIV-1)
[7] = target: HIV-1 Env of pseudovirus 1056_10_TA11_1826 (HIV-1)
[8] = target: HIV-1 Env of pseudovirus SC05_8C11_2344 (HIV-1)
[9] = target: HIV-1 Env of pseudovirus 249M B10 (HIV-1)
[10] = target: HIV-1 Env of pseudovirus Q23.17 (HIV-1)
[11] = target: HIV-1 Env of pseudovirus HIV-0013095-2.11 (HIV-1)
[12] = target: HIV-1 Env of pseudovirus HIV-16055-2.3 (HIV-1)
[13] = target: HIV-1 Env of pseudovirus 1006_11_C3_1601 (HIV-1)
[14] = target: HIV-1 Env of pseudovirus ZM197M.PB7 (HIV-1)
[15] = target: HIV-1 Env of pseudovirus TRJO4551.58 (HIV-1)
[16] = target: HIV-1 Env of pseudovirus PVO.4 (HIV-1)
[17] = target: HIV-1 Env of pseudovirus 1012_11_TC21_3257 (HIV-1)
[18] = target: HIV-1 Env of pseudovirus ZM233M.PB6 (HIV-1)
[19] = target: HIV-1 Env of pseudovirus 263-8 (HIV-1)
[20] = target: HIV-1 Env of pseudovirus 9004SS_A3_4 (HIV-1)
[21] = target: HIV-1 Env of pseudovirus T250-4 (HIV-1)
[22] = target: HIV-1 Env of pseudovirus 191084 B7-19 (HIV-1)
[23] = target: HIV-1 Env of pseudovirus 928-28 (HIV-1)

N49P9.1 (antibody)
IC50 [1]: 0.033 µg/mL
IC80 [1]: 0.146 µg/mL
MPI [1]: 100
IC50 [2]: 0.14 µg/mL
IC80 [2]: 0.647 µg/mL
MPI [2]: 99
IC50 [3]: 0.447 µg/mL
IC80 [3]: 1.29 µg/mL
MPI [3]: 100
IC50 [4]: 0.107 µg/mL
IC80 [4]: 0.709 µg/mL
MPI [4]: 100
IC50 [5]: 0.332 µg/mL
IC80 [5]: 1.53 µg/mL
MPI [5]: 98
IC50 [6]: 0.814 µg/mL
IC80 [6]: 4.08 µg/mL
MPI [6]: 96
IC50 [7]: 0.617 µg/mL
IC80 [7]: 3.03 µg/mL
MPI [7]: 100
IC50 [8]: 1.3 µg/mL
IC80 [8]: 4.39 µg/mL
MPI [8]: 100
IC50 [9]: 0.305 µg/mL
IC80 [9]: 1.64 µg/mL
MPI [9]: 96
IC50 [10]: 0.029 µg/mL
IC80 [10]: 0.106 µg/mL
MPI [10]: 100
IC50 [11]: 0.358 µg/mL
IC80 [11]: 1.26 µg/mL
MPI [11]: 100
IC50 [12]: 0.102 µg/mL
IC80 [12]: 0.362 µg/mL
MPI [12]: 100
IC50 [13]: 0.135 µg/mL
IC80 [13]: 0.448 µg/mL
MPI [13]: 100
IC50 [14]: 0.049 µg/mL
IC80 [14]: 0.283 µg/mL
MPI [14]: 100
IC50 [15]: 0.035 µg/mL
IC80 [15]: 0.12 µg/mL
MPI [15]: 100
IC50 [16]: 0.181 µg/mL
IC80 [16]: 0.874 µg/mL
MPI [16]: 100
IC50 [17]: 0.382 µg/mL
IC80 [17]: 1.45 µg/mL
MPI [17]: 100
IC50 [18]: > 50 µg/mL
IC80 [18]: > 50 µg/mL
MPI [18]: 6

N49P19 (antibody)
IC50 [1]: 20.7 µg/mL
IC80 [1]: > 50 µg/mL
MPI [1]: 59
IC50 [2]: 1.5 µg/mL
IC80 [2]: > 50 µg/mL
MPI [2]: 78
IC50 [3]: 1.19 µg/mL
IC80 [3]: 4.14 µg/mL
MPI [3]: 100
IC50 [4]: 2.56 µg/mL
IC80 [4]: 13.4 µg/mL
MPI [4]: 98
IC50 [5]: > 50 µg/mL
IC80 [5]: > 50 µg/mL
MPI [5]: 0
IC50 [6]: 0.613 µg/mL
IC80 [6]: 2.68 µg/mL
MPI [6]: 97
IC50 [7]: 0.925 µg/mL
IC80 [7]: 3.15 µg/mL
MPI [7]: 100
IC50 [8]: 0.954 µg/mL
IC80 [8]: 3.3 µg/mL
MPI [8]: 100
IC50 [9]: > 50 µg/mL
IC80 [9]: > 50 µg/mL
MPI [9]: 39
IC50 [10]: 0.234 µg/mL
IC80 [10]: 1.37 µg/mL
MPI [10]: 100
IC50 [11]: > 50 µg/mL
IC80 [11]: > 50 µg/mL
MPI [11]: 18
IC50 [12]: > 50 µg/mL
IC80 [12]: > 50 µg/mL
MPI [12]: 30
IC50 [13]: 0.4 µg/mL
IC80 [13]: 1.33 µg/mL
MPI [13]: 100
IC50 [14]: 38.4 µg/mL
IC80 [14]: > 50 µg/mL
MPI [14]: 56
IC50 [15]: 1.23 µg/mL
IC80 [15]: 5.4 µg/mL
MPI [15]: 99
IC50 [16]: 0.85 µg/mL
IC80 [16]: 2.95 µg/mL
MPI [16]: 100
IC50 [17]: 0.204 µg/mL
IC80 [17]: 0.895 µg/mL
MPI [17]: 100
IC50 [18]: > 50 µg/mL
IC80 [18]: > 50 µg/mL
MPI [18]: 4

PG9 (antibody)
IC50, titer in TZM.bl cells [1]: 0.024 µg/mL
IC80, titer in TZM.bl cells [1]: 0.146 µg/mL
IC50, titer in TZM.bl cells [19]: 0.293 µg/mL
IC80, titer in TZM.bl cells [19]: 1.05 µg/mL
IC50, titer in TZM.bl cells [2]: 0.131 µg/mL
IC80, titer in TZM.bl cells [2]: 0.6 µg/mL
IC50, titer in TZM.bl cells [3]: 0.069 µg/mL
IC80, titer in TZM.bl cells [3]: 0.221 µg/mL
IC50, titer in TZM.bl cells [4]: > 50 µg/mL
IC80, titer in TZM.bl cells [4]: > 50 µg/mL
IC50, titer in TZM.bl cells [5]: 20.6 µg/mL
IC80, titer in TZM.bl cells [5]: > 50 µg/mL
IC50, titer in TZM.bl cells [6]: > 50 µg/mL
IC80, titer in TZM.bl cells [6]: > 50 µg/mL
IC50, titer in TZM.bl cells [20]: 0.088 µg/mL
IC80, titer in TZM.bl cells [20]: 0.251 µg/mL
IC50, titer in TZM.bl cells [7]: 6.34 µg/mL
IC80, titer in TZM.bl cells [7]: 38.3 µg/mL
IC50, titer in TZM.bl cells [8]: 0.892 µg/mL
IC80, titer in TZM.bl cells [8]: 4.28 µg/mL
IC50, titer in TZM.bl cells [9]: 0.095 µg/mL
IC80, titer in TZM.bl cells [9]: 0.29 µg/mL
IC50, titer in TZM.bl cells [21]: 0.005 µg/mL
IC80, titer in TZM.bl cells [21]: 0.014 µg/mL
IC50, titer in TZM.bl cells [10]: 0.027 µg/mL
IC80, titer in TZM.bl cells [10]: 0.082 µg/mL
IC50, titer in TZM.bl cells [11]: 0.01 µg/mL
IC80, titer in TZM.bl cells [11]: 0.03 µg/mL
IC50, titer in TZM.bl cells [12]: 0.021 µg/mL
IC80, titer in TZM.bl cells [12]: 0.06 µg/mL
IC50, titer in TZM.bl cells [13]: 0.366 µg/mL
IC80, titer in TZM.bl cells [13]: 1.91 µg/mL
IC50, titer in TZM.bl cells [14]: 0.899 µg/mL
IC80, titer in TZM.bl cells [14]: 4.52 µg/mL
IC50, titer in TZM.bl cells [15]: 0.503 µg/mL
IC80, titer in TZM.bl cells [15]: 4.06 µg/mL
IC50, titer in TZM.bl cells [16]: 10.6 µg/mL
IC80, titer in TZM.bl cells [16]: > 50 µg/mL
IC50, titer in TZM.bl cells [17]: 0.172 µg/mL
IC80, titer in TZM.bl cells [17]: 0.605 µg/mL
IC50, titer in TZM.bl cells [22]: 0.043 µg/mL
IC80, titer in TZM.bl cells [22]: 0.202 µg/mL
IC50, titer in TZM.bl cells [23]: 0.101 µg/mL
IC80, titer in TZM.bl cells [23]: 0.45 µg/mL
IC50, titer in TZM.bl cells [18]: 0.01 µg/mL
IC80, titer in TZM.bl cells [18]: 0.026 µg/mL
